Here are results for one molecule from paper PMC4330388.

This data set has as its target T1, PPR10 (Zea mays, UniProt B8Y6I0 96-786).
T1 sequence: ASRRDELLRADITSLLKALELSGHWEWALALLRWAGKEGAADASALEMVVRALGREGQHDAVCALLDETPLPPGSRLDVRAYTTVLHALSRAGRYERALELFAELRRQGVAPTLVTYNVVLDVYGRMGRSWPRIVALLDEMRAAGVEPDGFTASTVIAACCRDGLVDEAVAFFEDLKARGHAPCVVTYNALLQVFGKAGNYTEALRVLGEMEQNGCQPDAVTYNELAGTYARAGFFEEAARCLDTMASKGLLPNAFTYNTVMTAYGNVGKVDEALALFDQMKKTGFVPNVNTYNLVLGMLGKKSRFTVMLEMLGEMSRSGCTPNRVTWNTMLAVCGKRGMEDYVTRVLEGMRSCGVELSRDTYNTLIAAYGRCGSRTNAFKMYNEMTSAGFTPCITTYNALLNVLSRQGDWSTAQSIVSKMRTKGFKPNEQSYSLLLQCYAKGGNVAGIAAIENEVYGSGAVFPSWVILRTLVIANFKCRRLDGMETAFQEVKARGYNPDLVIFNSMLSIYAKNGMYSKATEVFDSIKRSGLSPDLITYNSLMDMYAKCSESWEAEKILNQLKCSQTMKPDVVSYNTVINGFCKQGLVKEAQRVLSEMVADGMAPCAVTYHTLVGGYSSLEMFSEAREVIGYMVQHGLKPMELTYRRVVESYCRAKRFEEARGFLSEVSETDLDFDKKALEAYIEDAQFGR
The data set can be described thus: SEC-SAXS. For orientation: SEC sorts molecules by how far they enter the pores of the column.

As to GUAUCCUUAACCAUUUC (ssRNA) [atpH RNA 17-mer], the binding result is on record as “binds”.
